Here are results for two sequences from article PMC6166021.

The subject of this series is T1, NtcA (His6-tagged) (Nostoc sp. PCC 7120), ORF:1390dea6.
T1 sequence: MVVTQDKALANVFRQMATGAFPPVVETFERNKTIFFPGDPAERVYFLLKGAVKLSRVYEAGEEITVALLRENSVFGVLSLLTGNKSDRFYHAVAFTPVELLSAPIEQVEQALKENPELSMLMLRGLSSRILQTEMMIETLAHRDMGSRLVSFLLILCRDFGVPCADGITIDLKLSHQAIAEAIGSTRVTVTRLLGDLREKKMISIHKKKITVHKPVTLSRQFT
Put plainly: EMSA. The following applies: EMSA as in Muro-Pastor et al. 1999; buffer, salt, pH and temperature not given in the material.

For the sequence “ATCGATACTCTCGCAACAACGAAAGAATAGTAGTTTCATCAACCTCTAAACCTTTATATCTCCATACCCCTACACCCTAAACCCATATTTTGAGGGTATAGCGTAAGAACCCTACACCCGTCAGCCTCTTCTCCCCCCATTGACATTTTTGAAATATTCTGAAAGATAGAGGCTGATTACCTCCGGGTATATCTTTTTTCGGTAAATTTTTTCAAAAAAACTGTGTTGCCTGTATGAATATTGTTAAGAAAAGTTGCCCGTTGCATTTTGGGAATACGCAGCCGGGTTTTAACTC (double strand) [nsrR1 promoter fragment, mutated NtcA site (TAC to ATG)]”, the binding result is recorded as “no binding”.
As for “ATCGATACTCTCGCAACAACGAAAGAATAGTAGTTTCATCAACCTCTAAACCTTTATATCTCCATACCCCTACACCCTAAACCCATATTTTGAGGGTATAGCGTAAGAACCCTACACCCGTCAGCCTCTTCTCCCCCCATTGACATTTTTGAAATATTCTGAAAGATAGAGGCTGATTACCTCCGGGTATATCTTTTTTCGGTAAATTTTTTCAAAAAAACTGTGTTGCCTGTTACAATATTGTTAAGAAAAGTTGCCCGTTGCATTTTGGGAATACGCAGCCGGGTTTTAACTC (double strand) [nsrR1 promoter fragment WT (-239 to +50)]”, the entry is “binds”.
